Test [1] deals with T1, EDIII-DV3 (Dengue virus serotype 3 (DV3), UniProt Q6YMS3 579-671).
T1 construct: also called EDIII of DV3; EDIII-DVIII

Test [2] has as its target DV4 (Dengue virus serotype 4, virus used in FRNT) (Dengue virus serotype 4 (DV4)). The experiment in a line: cell-based or functional assay.
The target of test [3] is DV2 (Dengue virus serotype 2, virus used in FRNT) (Dengue virus serotype 2 (DV2)). The test is described as follows: cell-based or functional assay.
Test [4] deals with DV3 (Dengue virus serotype 3, virus used in FRNT) (Dengue virus serotype 3 (DV3)). The experiment in a line: cell-based or functional assay.
For test [5], the target named is DV1 (Dengue virus serotype 1, virus used in FRNT) (Dengue virus serotype 1 (DV1)). The experiment in a line: cell-based or functional assay.
Test [6] concerns the target T2, EDIII-DV2 (Dengue virus serotype 2 (DV2), UniProt P14337 581-673).
T2 construct: also called EDIII of DV2; EDIII-DVII

Test [7] has as its target T3, EDIII-DV1 (Dengue virus serotype 1 (DV1), UniProt P17763 581-673).
T3 construct: also called EDIII of DV1; EDIII-DVI

In test [8] the target is T1, EDIII-DV3. This is another data set of the same source.
The target in test [9] is T2, EDIII-DV2. This is another data set of the same source.
The target in test [10] is T3, EDIII-DV1. This is another data set of the same source.
Test [11] deals with T4, EDIII-DV4 (Dengue virus serotype 4 (DV4), UniProt P09866 580-672).
T4 construct: also called EDIII of DV4; DV4 EDIII
The test is described as follows: calculated from KD, ΔG = RTln(KD) at 25° C.

Test [12] deals with T4, EDIII-DV4. The test is described as follows: calculated from KD, relative to 4E11 WT.
The target in test [13] is T4, EDIII-DV4.
In test [14] the target is T4, EDIII-DV4. The experiment in a line: competition ELISA.

We go through three molecules from patent publication US20200207841A1 (MIT, published 2020).

Substitutions are numbered along the chain they refer to. Names and notes keep the numbering of the source. Where two headings read alike, the source gives them in different places.

B1: 4E5A (antibody, V domains shown)
VH: VKLLEQSGAELVKPGASVRLSCTASGFNIKDTYMSWVKQRPEQGLEWIGRIDPENGDTKYDPKFQGKATITADTSSNTAYLHLSSLTSGDTAVYYCSRGWEGFAYWGQGTLVTVSA
VL: ELVMTQTPASLAVSLGQRATISCRASENVDKYGNSFMHWYQQKAGQPPKLLIYRASELQWGIPARFSGSGSRTDFTLTINPVEADDVATYFCQRSNEVPWTFGGGTKLEIKR
notes: also called 4E11-5A; E45A
As to B1, the Kd with EDIII-DV3 [1] was 2.72 nM; with EDIII-DV2 [6] it was 0.129 nM; in the test with EDIII-DV1 [7] it was 0.217 nM; in the test with EDIII-DV3 [8] it was 24.2 nM; in the test with EDIII-DV2 [9], under 0.3 nM; in the test with EDIII-DV1 [10] it was 0.368 nM. The “FRNT50 (focus reduction neutralization test)” value in test [2] stood at 4 µg/mL; in test [3], 0.028 µg/mL; in test [4] it was 0.77 µg/mL; in test [5], 0.19 µg/mL.

B2: 4E11 VL-N57E (antibody, V domains shown)
VH: B1 VH with E54A
VL: B1 VL with K31R, Q59E, W60S
Consider B2, for which, in the test with EDIII-DV4 [11], the ΔG is -6.92 kcal/mol. The “ΔΔG (ΔGmutant - ΔGWT)” value with EDIII-DV4 [12] is -0.93 kcal/mol. For the same molecule, in the test with EDIII-DV4 [13], binding was put at a Kd of 8.41 µM.

B3: 4E11 VH-A55E (antibody, V domains shown)
VH: B1 VH
VL: B1 VL with K31R, E57N, Q59E, W60S
For B3, the ΔG with EDIII-DV4 [11] was -7.29 kcal/mol. Further, the “fold affinity enhancement relative to 4E11 WT” value in the test with EDIII-DV4 [14] came out at 9.2 fold. Also, in the test with EDIII-DV4 [12], the “ΔΔG (ΔGmutant - ΔGWT)” value is -1.31 kcal/mol. Further, the affinity with EDIII-DV4 [13], expressed as Kd, was 4.44 µM.

As usually defined, the Kd is a measure of binding affinity in units of concentration. A low value points to a tighter complex.
